Source: article PMC6509496, “Crystal structure of the TreS:Pep2 complex, initiating α-glucan synthesis in the GlgE pathway of mycobacteria” (The Journal of Biological Chemistry, 2019)
Substitutions are numbered along the chain they refer to. Numbers in names are those of the source.

B1: Mycobacterium tuberculosis TreS P511W (enzyme)
chain: MNEAEHSVEHPPVQGSHVEGGVVEHPDAKDFGSAAALPADPTWFKHAVFYEVLVRAFFDASADGSGDLRGLIDRLDYLQWLGIDCIWLPPFYDSPLRDGGYDIRDFYKVLPEFGTVDDFVALVDAAHRRGIRIITDLVMNHTSESHPWFQESRRDPDGPYGDYYVWSDTSERYTDARIIFVDTEESNWSFDPVRRQFYWHRFFSHQPDLNYDNPAVQEAMIDVIRFWLGLGIDGFRLDAVPYLFEREGTNCENLPETHAFLKRVRKVVDDEFPGRVLLAEANQWPGDVVEYFGDPNTGGDECHMAFHFPLMPRIFMAVRRESRFPISEIIAQTPPIPDMAQWGIFLRNHDELTLEMVTDEERDYMYAEYAKDPRMKANVGIRRRLAPLLDNDRNQIELFTALLLSLPGSPVLYYGDEIGMGDVIWLGDRDGVRIPMQWTPDRNAGFSTANPGRLYLPPSQDPVYGYQAVNVEAQRDTSTSLLNFTRTMLAVRRRHPAFAVGAFQELGGSNWSVLAYVRQVAGDDGDTVLCVNNLSRFPQPIELDLQQWTNYTPVELTGHVEFPRIGQVPYLLTLPGHGFYWFQLTTHEVGAPPTCGGERRL
notes: also called Mtb TreS-P511W
B2: Mycobacterium tuberculosis TreS R320E (enzyme)
chain: B1 chain with R320E, W511P
notes: also called Mtb TreS-R320E

Target: the molecule itself
Experiment: SEC

Protein	binding result
B1	binds
B2	binds
